# The supplement of paper PMC10724198
# ± gives the standard deviation of the averaged measurements.
# Test system: Saccharomyces cerevisiae
# Assay: protein stability index of tFT-peptide fusion (C-terminal peptide) (PSI (0-1 scale)); higher = more stable (slower turnover)
# Settings: genetic background: wild type; temperature: 30 C
# Method: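 MPS profiling in S. cerevisiae of the tFT-X12 degron library: putative degron peptides plus stable controls, 12 aa, fused to the C-terminus of a sfGFP-mCherry timer. Cells are FACS-sorted into 8 mCherry/sfGFP bins and deep-sequenced. PSI runs from 0 (unstable) to 1 (stable). Backgrounds are wild type, das1Δ and doa10Δ at 30 °C, and wild type, das1Δ, cdc34-1 and cdc53-1 at 37 °C; 2-3 technical replicates each.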
# 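Further: PSI is a weighted mean of sequencing reads over stability bins, variants kept only with over 10 reads, mCherry proximal and sfGFP distal, peptide attached via GGGS linker.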
row,Sequence,protein stability index
1,FCSLLVLLFFGV,0.337 ± 0.022
2,FELSVSVFQSVV,0.384 ± 0.044
3,FERVEYEVLGIG,0.38 ± 0.017
4,FFASAAVHLVTC,0.34 ± 0.016
5,FFLLLVGFSVLG,0.222 ± 0.021
6,FFLLTCFLLPSV,0.341 ± 0.024
7,FFLSFRLFSILL,0.292 ± 0.017
8,FFLVILSWWVGE,0.205 ± 0.052
9,FFMLWCRVLLRL,0.145 ± 0.031
10,FFVFPFGLLFLS,0.232 ± 0.02
11,FFVKGFRLLVFQ,0.384 ± 0.014
12,FIGVLVYICREG,0.228 ± 0.037
13,FITFLVFVGFFL,0.295 ± 0.026
14,FKKIKGKIEKKN,0.336 ± 0.012
15,FKWVSRIRLLDA,0.246 ± 0.016
16,FKYRVPLVGVVK,0.25 ± 0.02
17,FLDYLLFIFFFF,0.392 ± 0.037
18,FLFQYLCIISSL,0.0716 ± 0.026
19,FLGPMRVLVSSV,0.425 ± 0.026
20,FLLCRVFVLLRS,0.102 ± 0.018
21,FLLPWLRPVFFF,0.218 ± 0.024
22,FLLVGLLIVGCG,0.206 ± 0.026
23,FLSRVVLVVLLV,0.215 ± 0.034
24,FLVIILFFLYMR,0.184 ± 0.041
25,FLYSVLLICKFI,0.0757 ± 0.035
26,FMANRYICQKTL,0.0967 ± 0.022

row,Sequence,protein stability index
1,FPCRNFMVFFCF,0.204 ± 0.0085
2,FPFPLSSFLLLY,0.331 ± 0.019
3,FRSMFLFLNLLF,0.371 ± 0.019
4,FSFEGVLVPLLV,0.287 ± 0.033
5,FSFFLYFFLLLF,0.271 ± 0.034
6,FSGRYFLLFRFL,0.0605 ± 0.014
7,FSLLTWPFVFLV,0.0575 ± 0.0078
8,FVCWGSLILCGG,0.181 ± 0.027
9,FVFAMSECIVLS,0.214 ± 0.022
10,FVLWLIYVDLFF,0.22 ± 0.033
11,FVSHRRFSLFLY,0.143 ± 0.021
12,FVVLVFMLGSVC,0.245 ± 0.049
13,FVVVGLGLLCLA,0.305 ± 0.02
14,FVWVVRMLVFVP,0.16 ± 0.025
15,FWHGRCPGLYLV,0.169 ± 0.03
16,FYIRFYVYSWLF,0.303 ± 0.01
17,FYLSSCFLFLRF,0.288 ± 0.017
18,GAVRRWGGVSFV,0.664 ± 0.0068
19,GDLEFCCLIIVL,0.306 ± 0.032
20,GELPGELYKFWL,0.671 ± 0.016
21,GFFLLSFLFFVR,0.195 ± 0.021
22,GFGDKVPWRWVI,0.135 ± 0.0096
23,GFSVFSHSVWVR,0.194 ± 0.011
24,GGICVVAYWRLA,0.105 ± 0.021
25,GGMGLWCCVSVG,0.54 ± 0.015
26,GGRSLYAILCAV,0.197 ± 0.027

row,Sequence,protein stability index
1,GGSLWLVHLKTI,0.158 ± 0.011
2,GGTFWDGLVLVH,0.334 ± 0.035
3,GGYGAGLRSPLF,0.661 ± 0.0099
4,GINHLSLKLRLF,0.133 ± 0.0058
5,GIVSGEGAVGVG,0.466 ± 0.011
6,GIVYFDQWISVS,0.347 ± 0.02
7,GLACNPQLLRWT,0.654 ± 0.027
8,GLFGFASPPPPS,0.71 ± 0.021
9,GLLAEPALLLLS,0.62 ± 0.025
10,GLLLLGIRLKWG,0.206 ± 0.013
11,GLLLRLRNLFCM,0.391 ± 0.02
12,GLVVVVRLQYSP,0.299 ± 0.016
13,GLYFFVVRIFKV,0.184 ± 0.022
14,GPGTWLFCFVRF,0.42 ± 0.022
15,GQFFRCWRRRLC,0.166 ± 0.028
16,GRGLRVCWVWSG,0.18 ± 0.015
17,GRHRRIRYVKTS,0.183 ± 0.03
18,GSLFANYNLKLF,0.106 ± 0.028
19,GSVHLTKERHLV,0.241 ± 0.036
20,GVAILFTFFRLL,0.0756 ± 0.0073
21,GVGHAWHYFCVC,0.247 ± 0.021
22,GVLIFLSFQPIA,0.414 ± 0.013
23,GVLRMAPGRVMC,0.175 ± 0.0027
24,GVQFSVKWVKLG,0.109 ± 0.025
25,GVSLQLHVAVLI,0.278 ± 0.0093
26,GVSLRVFVVSVC,0.122 ± 0.018

# Same assay, conditions: genetic background: wild type; temperature: 37 C
row,Sequence,protein stability index
1,FCSLLVLLFFGV,0.466 ± 0.013
2,FELSVSVFQSVV,0.318 ± 0.0051
3,FERVEYEVLGIG,0.44 ± 0.021
4,FFASAAVHLVTC,0.491 ± 0.0037
5,FFLLLVGFSVLG,0.373 ± 0.0038
6,FFLLTCFLLPSV,0.514 ± 0.014
7,FFLSFRLFSILL,0.368 ± 0.011
8,FFLVILSWWVGE,0.31 ± 0.017
9,FFMLWCRVLLRL,0.167 ± 0.0071
10,FFVFPFGLLFLS,0.385 ± 0.0085
11,FFVKGFRLLVFQ,0.516 ± 0.046
12,FIGVLVYICREG,0.373 ± 0.018
13,FITFLVFVGFFL,0.448 ± 0.0071
14,FKKIKGKIEKKN,0.448 ± 0.0082
15,FKWVSRIRLLDA,0.411 ± 0.017
16,FKYRVPLVGVVK,0.3897 ± 0.00038
17,FLDYLLFIFFFF,0.473 ± 0.039
18,FLFQYLCIISSL,0.161 ± 0.013
19,FLGPMRVLVSSV,0.565 ± 0.0044
20,FLLCRVFVLLRS,0.125 ± 0.038
21,FLLPWLRPVFFF,0.369 ± 0.029
22,FLLVGLLIVGCG,0.334 ± 0.0082
23,FLSRVVLVVLLV,0.339 ± 0.029
24,FLVIILFFLYMR,0.185 ± 0.02
25,FLYSVLLICKFI,0.0829 ± 0.034
26,FMANRYICQKTL,0.168 ± 0.017

row,Sequence,protein stability index
1,FPCRNFMVFFCF,0.285 ± 0.03
2,FPFPLSSFLLLY,0.444 ± 0.0087
3,FRSMFLFLNLLF,0.574 ± 0.025
4,FSFEGVLVPLLV,0.384 ± 0.0086
5,FSFFLYFFLLLF,0.389 ± 0.016
6,FSGRYFLLFRFL,0.144 ± 0.038
7,FSLLTWPFVFLV,0.0613 ± 0.011
8,FVCWGSLILCGG,0.258 ± 0.0085
9,FVFAMSECIVLS,0.364 ± 0.00049
10,FVLWLIYVDLFF,0.339 ± 0.041
11,FVSHRRFSLFLY,0.203 ± 0.019
12,FVVLVFMLGSVC,0.426 ± 0.035
13,FVVVGLGLLCLA,0.491 ± 0.014
14,FVWVVRMLVFVP,0.3 ± 0.0077
15,FWHGRCPGLYLV,0.304 ± 0.005
16,FYIRFYVYSWLF,0.46 ± 0.0047
17,FYLSSCFLFLRF,0.305 ± 0.023
18,GAVRRWGGVSFV,0.679 ± 0.015
19,GDLEFCCLIIVL,0.5052 ± 0.0033
20,GELPGELYKFWL,0.743 ± 0.021
21,GFFLLSFLFFVR,0.311 ± 0.007
22,GFGDKVPWRWVI,0.244 ± 0.0061
23,GFSVFSHSVWVR,0.238 ± 0.013
24,GGICVVAYWRLA,0.173 ± 0.0065
25,GGMGLWCCVSVG,0.651 ± 0.0083
26,GGRSLYAILCAV,0.261 ± 0.011

row,Sequence,protein stability index
1,GGSLWLVHLKTI,0.275 ± 0.082
2,GGTFWDGLVLVH,0.45476 ± 9.2e-06
3,GGYGAGLRSPLF,0.729 ± 0.022
4,GINHLSLKLRLF,0.288 ± 0.01
5,GIVSGEGAVGVG,0.4989 ± 0.0019
6,GIVYFDQWISVS,0.544 ± 0.0084
7,GLACNPQLLRWT,0.7175 ± 0.0069
8,GLFGFASPPPPS,0.722 ± 0.011
9,GLLAEPALLLLS,0.6881 ± 0.0066
10,GLLLLGIRLKWG,0.328 ± 0.02
11,GLLLRLRNLFCM,0.547 ± 0.05
12,GLVVVVRLQYSP,0.4415 ± 0.0014
13,GLYFFVVRIFKV,0.336 ± 0.0096
14,GPGTWLFCFVRF,0.612 ± 0.031
15,GQFFRCWRRRLC,0.443 ± 0.011
16,GRGLRVCWVWSG,0.387 ± 0.013
17,GRHRRIRYVKTS,0.3527 ± 0.00097
18,GSLFANYNLKLF,0.211 ± 0.013
19,GSVHLTKERHLV,0.499 ± 0.0063
20,GVAILFTFFRLL,0.0737 ± 0.012
21,GVGHAWHYFCVC,0.431 ± 0.0045
22,GVLIFLSFQPIA,0.556 ± 0.0093
23,GVLRMAPGRVMC,0.345 ± 0.04
24,GVQFSVKWVKLG,0.18 ± 0.0065
25,GVSLQLHVAVLI,0.4284 ± 0.0018
26,GVSLRVFVVSVC,0.142 ± 0.0047
